# Test results: article PMC9482650, “Quantitative fragmentomics allow affinity mapping of interactomes” (Nature Communications, 2022)
# T1: RAPGEF6, Q8TEU7
# T1 sequence (Q8TEU7 525-625, limits assumed, looked up): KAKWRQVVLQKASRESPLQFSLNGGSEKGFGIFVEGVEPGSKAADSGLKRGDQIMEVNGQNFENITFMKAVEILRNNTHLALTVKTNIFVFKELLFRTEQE
# T2: LIN7C, Q9NUP9
# T2 sequence (Q9NUP9 88-185, limits assumed, looked up): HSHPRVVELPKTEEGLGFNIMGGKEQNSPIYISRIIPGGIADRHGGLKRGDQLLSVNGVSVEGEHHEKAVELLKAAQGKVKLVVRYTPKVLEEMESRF
# T3: TJP3_3, O95049
# T3 sequence (O95049 375-456, limits assumed, looked up): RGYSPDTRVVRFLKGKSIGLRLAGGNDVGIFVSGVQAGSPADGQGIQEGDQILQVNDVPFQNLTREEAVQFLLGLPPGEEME
# T4: DLG3_3, Q92796
# T4 sequence (Q92796 374-475, limits assumed, looked up): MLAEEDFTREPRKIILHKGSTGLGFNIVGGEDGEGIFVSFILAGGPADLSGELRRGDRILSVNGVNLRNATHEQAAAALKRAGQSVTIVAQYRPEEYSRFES
# T5: LNX2_3, Q8N448
# T5 sequence (Q8N448 463-564, limits assumed, looked up): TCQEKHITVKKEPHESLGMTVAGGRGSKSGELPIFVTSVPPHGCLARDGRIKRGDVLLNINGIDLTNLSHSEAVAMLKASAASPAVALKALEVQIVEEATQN
# T6: APBA3_1, O96018
# T6 sequence (O96018 389-490, limits assumed, looked up): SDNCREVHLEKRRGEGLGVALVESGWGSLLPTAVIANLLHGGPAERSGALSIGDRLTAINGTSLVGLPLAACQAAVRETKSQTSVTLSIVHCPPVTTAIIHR
# T7: ARHGAP21, Q5T5U3
# T7 sequence (Q5T5U3 45-169, limits assumed, looked up): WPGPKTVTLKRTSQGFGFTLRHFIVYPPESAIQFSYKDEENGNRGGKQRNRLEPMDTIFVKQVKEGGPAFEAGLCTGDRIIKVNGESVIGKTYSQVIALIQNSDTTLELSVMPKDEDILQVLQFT
# T8: APBA1_1, Q02410
# T8 sequence (Q02410 651-752, limits assumed, looked up): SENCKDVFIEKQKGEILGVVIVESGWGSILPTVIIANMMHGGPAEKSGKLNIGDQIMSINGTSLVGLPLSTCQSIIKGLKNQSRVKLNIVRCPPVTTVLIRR
# T9: SHANK1, Q9Y566
# T9 sequence (Q9Y566 658-767, limits assumed, looked up): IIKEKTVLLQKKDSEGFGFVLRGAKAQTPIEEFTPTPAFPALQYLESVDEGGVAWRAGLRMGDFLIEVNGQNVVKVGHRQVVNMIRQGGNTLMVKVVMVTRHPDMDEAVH
# T10: FRMPD1, Q5SYB0
# T10 sequence (Q5SYB0 52-145, limits assumed, looked up): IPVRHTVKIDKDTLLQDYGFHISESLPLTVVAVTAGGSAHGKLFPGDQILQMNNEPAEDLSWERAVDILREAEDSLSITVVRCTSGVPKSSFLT
# T11: LRRC7, Q96NW7
# T11 sequence (Q96NW7 1440-1537, limits assumed, looked up): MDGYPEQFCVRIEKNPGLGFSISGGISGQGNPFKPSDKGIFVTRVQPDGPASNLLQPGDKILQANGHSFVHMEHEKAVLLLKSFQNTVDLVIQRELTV
# Target: T1, RAPGEF6, Q8TEU7
# Experiment: holdup assay
# Design: key: below the threshold = too weak to quantify, mostly under pKd 3.1 to 4
# Settings: plain residues with an end cap or a label only (N-terminal biotin on a linker: ado-ado)
row,Binder,pKd
1,"SNAGNTATKA [NOSTRIN, Q8IVI9]",below the threshold
2,"QGPVETESVV [SLC45A4, Q5BKX6]",below the threshold

# Target: T2, LIN7C, Q9NUP9
# Experiment: holdup assay
# Design: key: below the threshold = too weak to quantify, mostly under pKd 3.1 to 4
# Settings: plain residues with an end cap or a label only (N-terminal biotin on a linker: ado-ado)
row,Binder,pKd
1,"SNAGNTATKA [NOSTRIN, Q8IVI9]",below the threshold
2,"QGPVETESVV [SLC45A4, Q5BKX6]",below the threshold

# Target: MAGI2_3, Q86UL8
# Sequence (Q86UL8 600-682): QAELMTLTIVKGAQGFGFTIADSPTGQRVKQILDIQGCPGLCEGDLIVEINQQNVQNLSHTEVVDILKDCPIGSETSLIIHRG
# Experiment: holdup assay
# Design: key: below the threshold = too weak to quantify, mostly under pKd 3.1 to 4
# Settings: plain residues with an end cap or a label only (N-terminal biotin on a linker: ado-ado)
row,Binder,pKd
1,"SNAGNTATKA [NOSTRIN, Q8IVI9]",below the threshold
2,"QGPVETESVV [SLC45A4, Q5BKX6]",3.65

# Target: MAGI2_4, Q86UL8
# Sequence (Q86UL8 772-865): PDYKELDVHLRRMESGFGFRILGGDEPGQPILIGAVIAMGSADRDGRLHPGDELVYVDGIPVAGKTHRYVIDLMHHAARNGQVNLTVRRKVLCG
# Experiment: holdup assay
# Design: key: below the threshold = too weak to quantify, mostly under pKd 3.1 to 4
# Settings: plain residues with an end cap or a label only (N-terminal biotin on a linker: ado-ado)
row,Binder,pKd
1,"SNAGNTATKA [NOSTRIN, Q8IVI9]",below the threshold
2,"QGPVETESVV [SLC45A4, Q5BKX6]",3.76

# Target: DLG2_2, Q15700
# Sequence (Q15700 189-283): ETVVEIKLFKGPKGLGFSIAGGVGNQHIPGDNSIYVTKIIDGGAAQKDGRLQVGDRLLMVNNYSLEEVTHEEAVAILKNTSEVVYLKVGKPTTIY
# Experiment: holdup assay
# Design: key: below the threshold = too weak to quantify, mostly under pKd 3.1 to 4
# Settings: plain residues with an end cap or a label only (N-terminal biotin on a linker: ado-ado)
row,Binder,pKd
1,"SNAGNTATKA [NOSTRIN, Q8IVI9]",below the threshold
2,"QGPVETESVV [SLC45A4, Q5BKX6]",4.45

# Target: NHERF4_2, Q86UT5
# Sequence (Q86UT5 220-308): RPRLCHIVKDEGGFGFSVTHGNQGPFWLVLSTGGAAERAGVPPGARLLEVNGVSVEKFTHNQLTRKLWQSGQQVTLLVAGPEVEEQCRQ
# Experiment: holdup assay
# Design: key: below the threshold = too weak to quantify, mostly under pKd 3.1 to 4
# Settings: plain residues with an end cap or a label only (N-terminal biotin on a linker: ado-ado)
row,Binder,pKd
1,"SNAGNTATKA [NOSTRIN, Q8IVI9]",below the threshold
2,"QGPVETESVV [SLC45A4, Q5BKX6]",below the threshold

# Target: T3, TJP3_3, O95049
# Experiment: holdup assay
# Design: key: below the threshold = too weak to quantify, mostly under pKd 3.1 to 4
# Settings: plain residues with an end cap or a label only (N-terminal biotin on a linker: ado-ado)
row,Binder,pKd
1,"SNAGNTATKA [NOSTRIN, Q8IVI9]",below the threshold
2,"QGPVETESVV [SLC45A4, Q5BKX6]",3.59

# Target: Inadl_4, Q8NI35
# Sequence (Q8NI35 547-651): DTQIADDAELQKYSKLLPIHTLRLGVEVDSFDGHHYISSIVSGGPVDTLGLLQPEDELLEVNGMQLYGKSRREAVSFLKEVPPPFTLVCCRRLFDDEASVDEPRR
# Experiment: holdup assay
# Design: key: below the threshold = too weak to quantify, mostly under pKd 3.1 to 4
# Settings: plain residues with an end cap or a label only (N-terminal biotin on a linker: ado-ado)
row,Binder,pKd
1,"SNAGNTATKA [NOSTRIN, Q8IVI9]",below the threshold
2,"QGPVETESVV [SLC45A4, Q5BKX6]",3.63

# Target: T4, DLG3_3, Q92796
# Experiment: holdup assay
# Design: key: below the threshold = too weak to quantify, mostly under pKd 3.1 to 4
# Settings: plain residues with an end cap or a label only (N-terminal biotin on a linker: ado-ado)
row,Binder,pKd
1,"SNAGNTATKA [NOSTRIN, Q8IVI9]",below the threshold
2,"QGPVETESVV [SLC45A4, Q5BKX6]",below the threshold

# Target: T5, LNX2_3, Q8N448
# Experiment: holdup assay
# Design: key: below the threshold = too weak to quantify, mostly under pKd 3.1 to 4
# Settings: plain residues with an end cap or a label only (N-terminal biotin on a linker: ado-ado)
row,Binder,pKd
1,"SNAGNTATKA [NOSTRIN, Q8IVI9]",below the threshold
2,"QGPVETESVV [SLC45A4, Q5BKX6]",below the threshold

# Target: T6, APBA3_1, O96018
# Experiment: holdup assay
# Design: key: below the threshold = too weak to quantify, mostly under pKd 3.1 to 4
# Settings: plain residues with an end cap or a label only (N-terminal biotin on a linker: ado-ado)
row,Binder,pKd
1,"SNAGNTATKA [NOSTRIN, Q8IVI9]",below the threshold
2,"QGPVETESVV [SLC45A4, Q5BKX6]",below the threshold

# Target: PARD3_3, Q8TEW0
# Sequence (Q8TEW0 582-685): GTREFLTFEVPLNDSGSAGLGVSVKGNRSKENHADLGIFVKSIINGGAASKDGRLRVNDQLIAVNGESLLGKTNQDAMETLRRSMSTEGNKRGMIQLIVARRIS
# Experiment: holdup assay
# Design: key: below the threshold = too weak to quantify, mostly under pKd 3.1 to 4
# Settings: plain residues with an end cap or a label only (N-terminal biotin on a linker: ado-ado)
row,Binder,pKd
1,"SNAGNTATKA [NOSTRIN, Q8IVI9]",below the threshold
2,"QGPVETESVV [SLC45A4, Q5BKX6]",3.81

# Target: PDLIM1, O00151
# Sequence (O00151 1-87): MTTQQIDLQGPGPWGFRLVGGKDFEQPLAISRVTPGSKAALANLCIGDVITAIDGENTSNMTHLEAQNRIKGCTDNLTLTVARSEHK
# Experiment: holdup assay
# Design: key: below the threshold = too weak to quantify, mostly under pKd 3.1 to 4
# Settings: plain residues with an end cap or a label only (N-terminal biotin on a linker: ado-ado)
row,Binder,pKd
1,"SNAGNTATKA [NOSTRIN, Q8IVI9]",below the threshold
2,"QGPVETESVV [SLC45A4, Q5BKX6]",below the threshold

# Target: Inadl_8, Q8NI35
# Sequence (Q8NI35 1425-1530): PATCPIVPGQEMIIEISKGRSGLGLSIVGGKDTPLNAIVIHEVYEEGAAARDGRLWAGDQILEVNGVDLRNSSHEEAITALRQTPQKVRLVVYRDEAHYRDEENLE
# Experiment: holdup assay
# Design: key: below the threshold = too weak to quantify, mostly under pKd 3.1 to 4
# Settings: plain residues with an end cap or a label only (N-terminal biotin on a linker: ado-ado)
row,Binder,pKd
1,"SNAGNTATKA [NOSTRIN, Q8IVI9]",below the threshold
2,"QGPVETESVV [SLC45A4, Q5BKX6]",3.7

# Target: T7, ARHGAP21, Q5T5U3
# Experiment: holdup assay
# Design: key: below the threshold = too weak to quantify, mostly under pKd 3.1 to 4
# Settings: plain residues with an end cap or a label only (N-terminal biotin on a linker: ado-ado)
row,Binder,pKd
1,"SNAGNTATKA [NOSTRIN, Q8IVI9]",below the threshold
2,"QGPVETESVV [SLC45A4, Q5BKX6]",4.14

# Target: AHNAK1, Q09666
# Sequence (Q09666 4-100): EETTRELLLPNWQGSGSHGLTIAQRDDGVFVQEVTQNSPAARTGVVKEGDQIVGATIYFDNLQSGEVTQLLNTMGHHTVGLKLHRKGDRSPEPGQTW
# Experiment: holdup assay
# Design: key: below the threshold = too weak to quantify, mostly under pKd 3.1 to 4
# Settings: plain residues with an end cap or a label only (N-terminal biotin on a linker: ado-ado)
row,Binder,pKd
1,"SNAGNTATKA [NOSTRIN, Q8IVI9]",below the threshold
2,"QGPVETESVV [SLC45A4, Q5BKX6]",below the threshold

# Target: MAGI3_2, Q5TCQ9
# Sequence (Q5TCQ9 398-503): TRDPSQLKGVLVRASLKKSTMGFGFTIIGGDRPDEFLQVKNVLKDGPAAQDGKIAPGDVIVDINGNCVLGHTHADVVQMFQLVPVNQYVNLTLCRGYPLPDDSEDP
# Experiment: holdup assay
# Design: key: below the threshold = too weak to quantify, mostly under pKd 3.1 to 4
# Settings: plain residues with an end cap or a label only (N-terminal biotin on a linker: ado-ado)
row,Binder,pKd
1,"SNAGNTATKA [NOSTRIN, Q8IVI9]",below the threshold
2,"QGPVETESVV [SLC45A4, Q5BKX6]",4.47

# Target: FRMPD2_1, Q68DX3
# Sequence (Q68DX3 770-861): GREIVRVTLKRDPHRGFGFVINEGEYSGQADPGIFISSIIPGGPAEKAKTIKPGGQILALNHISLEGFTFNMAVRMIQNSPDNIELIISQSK
# Experiment: holdup assay
# Design: key: below the threshold = too weak to quantify, mostly under pKd 3.1 to 4
# Settings: plain residues with an end cap or a label only (N-terminal biotin on a linker: ado-ado)
row,Binder,pKd
1,"SNAGNTATKA [NOSTRIN, Q8IVI9]",below the threshold
2,"QGPVETESVV [SLC45A4, Q5BKX6]",below the threshold

# Target: GRID2IP_1, A4D2P6
# Sequence (A4D2P6 1-87): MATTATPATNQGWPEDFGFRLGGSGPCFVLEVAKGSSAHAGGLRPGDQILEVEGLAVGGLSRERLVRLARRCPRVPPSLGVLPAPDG
# Experiment: holdup assay
# Design: key: below the threshold = too weak to quantify, mostly under pKd 3.1 to 4
# Settings: plain residues with an end cap or a label only (N-terminal biotin on a linker: ado-ado)
row,Binder,pKd
1,"SNAGNTATKA [NOSTRIN, Q8IVI9]",below the threshold
2,"QGPVETESVV [SLC45A4, Q5BKX6]",below the threshold

# Target: NHERF4_1, Q86UT5-2
# Sequence (Q86UT5 other isoform, or with tags, fused parts or gaps): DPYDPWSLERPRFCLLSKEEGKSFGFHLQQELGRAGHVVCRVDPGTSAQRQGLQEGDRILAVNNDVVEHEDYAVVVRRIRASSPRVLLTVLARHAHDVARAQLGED
# Experiment: holdup assay
# Design: key: below the threshold = too weak to quantify, mostly under pKd 3.1 to 4
# Settings: plain residues with an end cap or a label only (N-terminal biotin on a linker: ado-ado)
row,Binder,pKd
1,"SNAGNTATKA [NOSTRIN, Q8IVI9]",below the threshold
2,"QGPVETESVV [SLC45A4, Q5BKX6]",3.48

# Target: PTPN3, P26045
# Sequence (P26045 505-587): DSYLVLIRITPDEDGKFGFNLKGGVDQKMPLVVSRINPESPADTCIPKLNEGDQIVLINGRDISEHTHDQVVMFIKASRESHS
# Experiment: holdup assay
# Design: key: below the threshold = too weak to quantify, mostly under pKd 3.1 to 4
# Settings: plain residues with an end cap or a label only (N-terminal biotin on a linker: ado-ado)
row,Binder,pKd
1,"SNAGNTATKA [NOSTRIN, Q8IVI9]",3.87
2,"QGPVETESVV [SLC45A4, Q5BKX6]",4.66

# Target: T8, APBA1_1, Q02410
# Experiment: holdup assay
# Design: key: below the threshold = too weak to quantify, mostly under pKd 3.1 to 4
# Settings: plain residues with an end cap or a label only (N-terminal biotin on a linker: ado-ado)
row,Binder,pKd
1,"SNAGNTATKA [NOSTRIN, Q8IVI9]",below the threshold
2,"QGPVETESVV [SLC45A4, Q5BKX6]",below the threshold

# Target: LDB3, O75112
# Sequence (O75112 1-94): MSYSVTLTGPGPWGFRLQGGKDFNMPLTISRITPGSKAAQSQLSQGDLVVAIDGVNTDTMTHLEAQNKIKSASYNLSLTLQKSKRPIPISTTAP
# Experiment: holdup assay
# Design: key: below the threshold = too weak to quantify, mostly under pKd 3.1 to 4
# Settings: plain residues with an end cap or a label only (N-terminal biotin on a linker: ado-ado)
row,Binder,pKd
1,"SNAGNTATKA [NOSTRIN, Q8IVI9]",below the threshold
2,"QGPVETESVV [SLC45A4, Q5BKX6]",below the threshold

# Target: T9, SHANK1, Q9Y566
# Experiment: holdup assay
# Design: key: below the threshold = too weak to quantify, mostly under pKd 3.1 to 4
# Settings: plain residues with an end cap or a label only (N-terminal biotin on a linker: ado-ado)
row,Binder,pKd
1,"SNAGNTATKA [NOSTRIN, Q8IVI9]",below the threshold
2,"QGPVETESVV [SLC45A4, Q5BKX6]",below the threshold

# Target: T10, FRMPD1, Q5SYB0
# Experiment: holdup assay
# Design: key: below the threshold = too weak to quantify, mostly under pKd 3.1 to 4
# Settings: plain residues with an end cap or a label only (N-terminal biotin on a linker: ado-ado)
row,Binder,pKd
1,"SNAGNTATKA [NOSTRIN, Q8IVI9]",below the threshold
2,"QGPVETESVV [SLC45A4, Q5BKX6]",below the threshold

# Target: T11, LRRC7, Q96NW7
# Experiment: holdup assay
# Design: key: below the threshold = too weak to quantify, mostly under pKd 3.1 to 4
# Settings: plain residues with an end cap or a label only (N-terminal biotin on a linker: ado-ado)
row,Binder,pKd
1,"SNAGNTATKA [NOSTRIN, Q8IVI9]",below the threshold
2,"QGPVETESVV [SLC45A4, Q5BKX6]",3.73

# Target: Inadl_2, Q8NI35
# Sequence (Q8NI35 238-335): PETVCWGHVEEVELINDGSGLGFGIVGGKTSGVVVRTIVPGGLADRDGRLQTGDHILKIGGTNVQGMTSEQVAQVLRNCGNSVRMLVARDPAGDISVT
# Experiment: holdup assay
# Design: key: below the threshold = too weak to quantify, mostly under pKd 3.1 to 4
# Settings: plain residues with an end cap or a label only (N-terminal biotin on a linker: ado-ado)
row,Binder,pKd
1,"SNAGNTATKA [NOSTRIN, Q8IVI9]",below the threshold
2,"QGPVETESVV [SLC45A4, Q5BKX6]",below the threshold
